The record followed here is article PMC11587651, “Increased cytoplasmic expression of PETase enzymes in E. coli” (Microbial Cell Factories, 2024).

Substrate in this series: CC(=O)Oc1ccc([N+](=O)[O-])cc1
The series can be described thus: purified protein. Type of series: biochemical, Pseudideonella sakaiensis. Particulars: 100 mM potassium phosphate pH 7, 25 °C, 1-20 mM 4-NPA, acetonitrile from substrate stock.

B1: IsPETase (Pseudideonella sakaiensis; D186H/K252M/K95N/M154G/N212K/N233C/N241C/P181V/Q119K/Q182M/R224L/R280A/R90T/S121E/S207R/S213E/S214Y/S282C/S58A/S61V/T270Q) (protein)
chain: AQTNPYARGPNPTAASLEASAGPFTVRSFTVARPVGYGAGTVYYPTNAGGTVGAIAIVPGYTATQSSINWWGPRLASHGFVVITIDTNSTLDKPESRSSQQMAALRQVASLNGTSSSPIYGKVDTARGGVMGWSMGGGGSLISAANNPSLKAAAVMAPWHSSTNFSSVTVPTLIFACENDRIAPVKEYALPIYDSMSLNAKQFLEICGGSHSCACSGNSNQALIGMKGVAWMKRFMDNDTRYSQFACENPNSTAVCDFRTANCS
notes: expressed in E. coli SHuffle T7 Express; IMAC purified; monomeric by SEC
What is called Km is the substrate concentration at which the rate is half of its maximum. What is called kcat is the maximal rate divided by the concentration of active sites. B1: for the setting “Hot-PETase”, the Km is reported as 9.61 ± 0.91 mM and the kcat came out at 33.0 ± 1.5 s⁻¹.

B2: IsPETase (Pseudideonella sakaiensis) (protein)
chain: AQTNPYARGPNPTAASLEASAGPFTVRSFTVSRPSGYGAGTVYYPTNAGGTVGAIAIVPGYTARQSSIKWWGPRLASHGFVVITIDTNSTLDQPSSRSSQQMAALRQVASLNGTSSSPIYGKVDTARMGVMGWSMGGGGSLISAANNPSLKAAAPQAPWDSSTNFSSVTVPTLIFACENDSIAPVNSSALPIYDSMSRNAKQFLEINGGSHSCANSGNSNQALIGKKGVAWMKRFMDNDTRYSTFACENPNSTRVSDFRTANCS
notes: as for B1
Turning to B2, the Km is 8.16 ± 0.66 mM and the catalytic constant (kcat) was 30.3 ± 1.1 s⁻¹.

B3: IsPETase (Pseudideonella sakaiensis; D186H/N233K/R224Q/R280A/S121E) (protein)
chain: AQTNPYARGPNPTAASLEASAGPFTVRSFTVSRPSGYGAGTVYYPTNAGGTVGAIAIVPGYTARQSSIKWWGPRLASHGFVVITIDTNSTLDQPESRSSQQMAALRQVASLNGTSSSPIYGKVDTARMGVMGWSMGGGGSLISAANNPSLKAAAPQAPWHSSTNFSSVTVPTLIFACENDSIAPVNSSALPIYDSMSQNAKQFLEIKGGSHSCANSGNSNQALIGKKGVAWMKRFMDNDTRYSTFACENPNSTAVSDFRTANCS
notes: as for B1
In the case of B3, under “FAST-PETase”, the Km is listed as 11.33 ± 1.11 mM and the kcat was determined as 45.7 ± 2.3 s⁻¹.
